Columns and labels:
F1G2 peptide [1] = assay: SPR, peptide on streptavidin chip, ClpS2 variant protein in solution; type: binding; conditions: for specificity between N-terminal Phe and Trp, in words: from SPR binding data
Method: (§1) With regard to surface plasmon resonance (SPR), SPR data was collected by loading a streptavidin chip with the target biotinylated peptides in each of the four channels, and then flowing the protein over the chip at each concentration for 180 seconds before washing with 50 mM Tris-HCl, pH 8.0, 300 mM NaCl, 1 mM DTT, 5% glycerol buffer for 180 seconds. […] The four channels were used such that the negative control peptide (A1G2) was in channel 1, F1G2 in channel 2, W1G2 in channel 3, and Y1G2 in channel 4. The negative control peptide channel was used as a baseline for subtraction, which accommodates both any non-specific binding and refractive index change. A steady state response at each concentration was plotted and fit to calculate the KD, while the resonance units vs. time was used to calculate a koff for each mutant protein with each peptide.
(§2) Regarding characterization of the ClpS mutant protein binding kinetics, for peptide sequencing via some recently proposed methods reagents can bind peptides affixed to a surface. Two A. tumefaciens ClpS2 protein variants (V2, described above, and V1) were expressed and purified from E. coli. […] The binding properties of each variant were analyzed using surface plasmon resonance (SPR).

Y1G2 peptide = assay: as above; type: binding
Method: as §1, §2

W1G2 peptide [2] = target: T1, W1G2 peptide (Agrobacterium fabrum, UniProt Q8UD95, E37S/P35C/R36P); type: binding; design: His6 (N); TEV protease cleavage site (N); made in house; host or cells: BL21 Escherichia coli; conditions: SPR
Method: as §1, §2

W1G2 peptide [3] = target: T1, W1G2 peptide; assay: flow cytometry of yeast displaying ClpS proteins; type: binding; design: factor Xa cleavage site (N); expressed in transfected cells; host or cells: Saccharomyces cerevisiae EBY100, pCTCON2 library clone; conditions: yeast-displayed protein
Method: After two rounds of MACs selection, the library was sorted by flow cytometry. […] A typical reaction contained 100 μL of cells (containing approximately 10^6 cells), 10 μL of peptide at a concentration between 10 nM to 10 μM, and 25 μL of a master mix containing 2 μL of an anti-myc antibody, 4 μL of the SAPE (streptavidin, R-phycoerythrin conjugate—1 mg/mL) and 19 μL of PBS/BSA for each sample.
Cells were washed with PBS/BSA and sorted using a FACS Aria cytometer and collected in 1 mL of SD-CAA media. The number of cells that bound the peptide improved with each round and were sorted with sequentially lower concentrations of peptide to increase the stringency of the selection. […]
With regard to directed evolution of ClpS, random mutagenesis and screening was used to select proteins with higher affinity binding to the target NAA. In subsequent steps, specific residues were determined from initial screens with a targeted mutagenesis step. […] Using FACS, we assessed the affinity of each mutant for the N-terminal amino acid on the target peptide based on which quadrant the fluorescent signal fell into as shown in FIG. 15. […] If there is also a high fluorescence signal along the x-axis (streptavidin-PE) then the peptide is presumably bound to the protein variant, and the signal will appear in Q2. […]

W1G2 peptide [4] = type: binding
Method: as §1, §2

[5] = thermal stability by intrinsic protein fluorescence; type: physicochemical; conditions: compared with wild-type and V1
Method: The thermal stability of the variants was assessed. Each variant was loaded in 3×PBS at approximately 1 mg/mL concentration in capillary tubes and the intrinsic protein fluorescence recorded at 330 nm and 350 nm while heating the sample over a 35-95° C. at a rate of […].

F1G2 peptide [6] = assay: yeast/peptide colorimetric pull-down assay; type: binding; conditions: yeast-displayed protein
Method: (§3) Incubation and wash steps were repeated.

Tyr NAA peptide = assay: yeast/peptide colorimetric pull-down assay; type: binding; conditions: yeast-displayed protein
Method: as §3

Leu NAA peptide = assay: yeast/peptide colorimetric pull-down assay; type: binding; conditions: yeast-displayed protein
Method: as §3

[7] = relative specificity factor, ratio of binding affinities

B1: A. tumefaciens ClpS2 [Cys34 Pro35 Ser36] (protein, listed as Escherichia coli)
chain: SDSPVDLKPKPKVKPKLERPKLYKVMLLNDDYTCPSFVTVVLKAVFRMSEDTGRRVMMTAHRFGSAVVVVCERDIAETKAKEATDLGKEAGFPLMFTTEPEE
notes: ClpS2 variant, native residues 34-36 ProArgGlu mutated to CysProSer
F1G2 peptide [1]; SPR
  dissociation rate slowed over wild-type, Phe: 27.9 fold
F1G2 peptide [1]
  specificity between N-terminal Phe and Trp, in words: more specific for Phe over Trp than the wild-type protein
F1G2 peptide [1]; listed as CysProSer variant
  specificity between N-terminal Phe and Trp, in words: selectively bound to Trp over Phe
F1G2 peptide [1]; from SPR dissociation curves
  KOFF Phe: 0.03 s⁻¹
F1G2 peptide [1]; in vitro surface binding assays
  affinity for N-terminal Phe relative to wild-type, in words: greater affinity
F1G2 peptide [1]; [7]
  Selectivity for Phe, Phe/Phe: 1.0
  Selectivity for Phe, Phe/Trp: 1.32
  Selectivity for Phe, Phe/Tyr: 0.10
F1G2 peptide [1]; steady state, peptide on surface, 0 to 50 μM protein, read-out: KD Phe
  Kd: 3.7 ± 0.3 µM
Y1G2 peptide; from SPR dissociation curves
  KOFF Tyr: 0.05 s⁻¹
Y1G2 peptide; [7]
  Selectivity for Tyr, Tyr/Phe: 9.82
  Selectivity for Tyr, Tyr/Trp: 12.91
  Selectivity for Tyr, Tyr/Tyr: 1.0
Y1G2 peptide; steady state, peptide on surface, 0 to 50 μM protein, read-out: KD Tyr
  Kd: 36.1 ± 4.4 µM
W1G2 peptide [2]
  decrease in KD for W1G2 peptide compared to wild-type: 6.6 fold
  dissociation rate slowed over wild-type, Trp: 51.3 fold
W1G2 peptide [3]
  affinity for W1G2 peptide compared to wild-type: improved affinity
W1G2 peptide [4]; from SPR dissociation curves
  KOFF Trp: 0.03 s⁻¹
W1G2 peptide [4]; in vitro surface binding assays / SPR
  affinity for N-terminal Trp relative to wild-type, in words: greater affinity
W1G2 peptide [4]; [7]
  Selectivity for Trp, Trp/Phe: 0.76
  Selectivity for Trp, Trp/Trp: 1.0
  Selectivity for Trp, Trp/Tyr: 0.08
W1G2 peptide [4]; steady state, peptide on surface, 0 to 50 μM protein, read-out: KD Trp
  Kd: 2.8 ± 0.3 µM
[5]
  thermal stability: not as thermally stable
F1G2 peptide [6]
  affinity for F1G2 peptide compared to wild-type: increased binding affinity
Tyr NAA peptide
  binding affinity to Tyr compared to wild-type: increased binding affinity
Leu NAA peptide
  binding to Leu: increased affinity

— patent US11390653B2, “Amino acid-specific binder and selectively identifying an amino acid” (priority 2018, dated 2022)
